For assay [1], the target named is Human TGF-β1 (acrobiosystems, TG1-H421) (human) (UniProt P01137).
Assay [2] has the same target. Description: ELISA on coated human TGF-β1, anti-human Fc-HRP, absorbance at 450 nm (top panel). (In general: ELISA stands for enzyme-linked immunosorbent assay.)
The target of assay [3] is Human TGF-β3 (PeproTech, 100-36E) (human) (UniProt P10600). Description: ELISA on coated human TGF-β3, anti-human Fc-HRP, absorbance at 450 nm (bottom panel).
Assay [4] concerns the target human PD-L1 on CHO-hPD-L1 cells (human) (UniProt Q9NZQ7). Description: flow cytometry on CHO cells overexpressing human PD-L1, median fluorescence intensity PE-A. (In general: Flow cytometry measures light scatter and fluorescence of single cells or particles in a stream.)
Assay [5] addresses biotinylated human PD-L1 protein (purchased from AcroBiosystems) (human) (UniProt Q9NZQ7). Nature of the assay: blocking assay by flow cytometry: PD-L1 protein pre-incubated with the sample, binding to human PD-1 on CHO-hPD-1 cells.
Assay [6] concerns the target human PD-L1 on CHO-hPD-L1 cells (human) (UniProt Q9NZQ7). Nature of the assay: flow cytometry on CHO-hPD-L1 cells, PE anti-human IgG-Fc; table under the lower panel prints no unit, concentration axis is in nM.

Human TGF-β1 (acrobiosystems, TG1-H421) (human), sequence (P01137 279-390 limits assumed): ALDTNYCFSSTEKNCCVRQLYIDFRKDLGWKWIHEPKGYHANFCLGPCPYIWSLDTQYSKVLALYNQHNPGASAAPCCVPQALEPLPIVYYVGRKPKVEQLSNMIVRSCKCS
Human TGF-β3 (PeproTech, 100-36E) (human), sequence (P10600 301-412 limits assumed): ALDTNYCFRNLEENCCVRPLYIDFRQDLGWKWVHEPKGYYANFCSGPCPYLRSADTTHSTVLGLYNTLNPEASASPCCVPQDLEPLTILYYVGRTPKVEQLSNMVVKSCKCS
human PD-L1 on CHO-hPD-L1 cells (human), sequence (Q9NZQ7 19-290): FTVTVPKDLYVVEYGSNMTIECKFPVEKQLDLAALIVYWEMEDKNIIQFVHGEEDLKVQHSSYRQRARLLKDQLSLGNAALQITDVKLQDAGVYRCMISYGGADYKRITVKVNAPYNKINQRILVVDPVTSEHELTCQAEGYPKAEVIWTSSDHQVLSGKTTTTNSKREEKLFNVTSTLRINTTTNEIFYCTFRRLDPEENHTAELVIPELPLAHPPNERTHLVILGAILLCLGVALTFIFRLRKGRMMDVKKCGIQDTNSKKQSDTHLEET
biotinylated human PD-L1 protein (purchased from AcroBiosystems) (human), sequence (Q9NZQ7 19-238 limits assumed): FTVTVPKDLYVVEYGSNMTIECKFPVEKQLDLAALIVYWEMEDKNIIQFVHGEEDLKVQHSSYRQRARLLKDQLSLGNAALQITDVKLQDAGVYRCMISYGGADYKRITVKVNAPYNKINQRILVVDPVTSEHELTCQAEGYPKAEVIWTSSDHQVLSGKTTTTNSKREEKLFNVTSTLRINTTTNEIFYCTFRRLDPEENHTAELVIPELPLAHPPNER

What is called EC50 (read off the curve) is the midpoint of the concentration-response curve. Lower therefore signals an effect from little substance. Take M7824: the IC50 (read off the curve) in assay [1] was determined as 0.3 nM; in assay [5] it was 4 nM. Also, the EC50 (read off the curve) in assay [2] was 1 nM; in assay [3], 0.6 nM; in assay [4], 3 nM.

TGF-βR2-Fc (Fc fusion) had an IC50 (read off the curve) in assay [1] of 0.4 nM. Further, the results for the EC50 (read off the curve) in assay [2] and in assay [3] were 0.8 nM and 0.6 nM, respectively.

Usually EC50 stands for the concentration giving half of the maximal effect. The low end stands for an effect from little substance, the high end for a need for much substance. As for … (atezolizumab) (antibody), the EC50 in assay [6] stood at 2.27 nM.

(Values after US20250345451A1.)
